Results as given in PMC10855774, “Role of Spexin in White Adipose Tissue Thermogenesis under Basal and Cold-Stimulated Conditions” (International Journal of Molecular Sciences, 2024).

How the values were obtained:
3T3-L1 adipocytes = details: in vitro; cited from earlier work
Text: (§1) Beige adipocytes may be generated through two different mechanisms: adipogenesis, de novo, from precursor stem cells, and the transdifferentiation process, which involves the conversion/reprogramming of white adipocytes. Regarding the former, different studies have shown the presence of different adipocyte precursors that have different thermogenic capacities when differentiated in vitro [22]. Other studies have observed that PDGFRα+ cells are bipotential precursors, being able to differentiate into either white or beige adipocytes depending on the stimulus. Then, only PDGFRα+ and EBF2+ cell ...

preadipocytes = details: cited from earlier work
Text: as §1

[1] = Plasma SPX levels (ELISA) after SPX injection; assay type: in vivo, mice
Experimental: (§2) Circulating glucose (Glu) and triglyceride (Tg) levels were measured using commercial kits (Wiener Lab., Rosario, Argentina). Plasma SPX was measured using a commercial ELISA kit (SPX: Phoenix pharmaceutical EK-023-81).
Supplementary figure 1. SPX levels (ng/ml, EIA Phoe nix pharmaceutical) after intraperitoneal injec tion with SPX (29 µg/kg). or Vehicle in mic e Different time points we r e evaluated after ip. Injections (10, 20, 60, 180, 360 minutes).
Supplementary Figure 2. ucp1 (a), pgc1α (b) and cox8b (c) mRNA expression in B AT. In all case s, t wo -wa y A N O VA wa s performed for factor (S or C) and interaction (S x C) analysis and deta iled below the graph only when s ig n if ica nt .. When interaction is statist icall y s ig n if ica nt , group to gr oup comparison wa s performed by Bonferroni test. ++++ P<0.0001 vs. CTR and ***P<0.001 vs. CTR-C (n=4- 6 m ice per group). […]

mitochondrial DNA = assay: Mitochondrial DNA content quantification (qPCR); assay type: in vivo, mice
Experimental: (§3) Normal adult male C57BL/6 mice (four months of age) were kept in a temperature-controlled environment (20–22 °C and a fixed 12 h light/12 h dark cycle; lights on at 07:00 h) and fed ad libitum with Purina commercial rat/mouse chow (Ganave, Buenos Aires, Argentina, L0723/1). Mice were injected with SPX or PBS (29 µg/kg/day, Tocris, Bristol, UK) for ten days (the SPX and CTR groups, respectively). On the third day of the protocol, each group was subdivided into two other groups: one exposed to cold (4 °C, CTR-C and SPX-C, n = 12 mice for each group) and another one housed at RT (CTR and SPX, n = 15 mice for each group) (Figure 1). Food intake and body weight were measured every day. On the experimental day (day 10), the mice were euthanized under non-fasting conditions (08:00 to 09:00 h), and their trunk blood was collected; plasma samples were then frozen (–80 °C) until the metabolite measurement. […]
Tissue from the EAT and IAT depots were homogenized with lysis buffer (40 mM EDTA, 50 mM NaCl, 100 mM Tris, 0.2% SDS) in PBS (2:1) and, for DNA fragmentation, samples were sonicated (38 kHz ± 10% for 5–10 s). […] Finally, the DNA was dissolved in TE buffer and quantified by Nanodrop at 260 nm. […] The relative changes in the DNA mitochondrial content were calculated by 2[2, −ΔΔCt] […]

galr2 = galr2 mRNA expression in AT depots (qRT-PCR); assay type: in vivo, mice; details: RT and cold
Experimental: (§4) Normal adult male C57BL/6 mice (four months of age) were kept in a temperature-controlled environment (20–22 °C and a fixed 12 h light/12 h dark cycle; lights on at 07:00 h) and fed ad libitum with Purina commercial rat/mouse chow (Ganave, Buenos Aires, Argentina, L0723/1). Mice were injected with SPX or PBS (29 µg/kg/day, Tocris, Bristol, UK) for ten days (the SPX and CTR groups, respectively). On the third day of the protocol, each group was subdivided into two other groups: one exposed to cold (4 °C, CTR-C and SPX-C, n = 12 mice for each group) and another one housed at RT (CTR and SPX, n = 15 mice for each group) (Figure 1). Food intake and body weight were measured every day. On the experimental day (day 10), the mice were euthanized under non-fasting conditions (08:00 to 09:00 h), and their trunk blood was collected; plasma samples were then frozen (–80 °C) until the metabolite measurement. Inguinal AT (IAT, subcutaneous depot), epididymal AT (EAT, visceral depot), and brown AT (BAT, subcutaneous depot) were aseptically dissected and weighed. These depots were kept at –80 °C for further procedures. Animals were euthanized according to protocols for animal use, in agreement with the NIH guidelines for the care and use of experimental animals. All experiments were approved by our Institutional Animal Care Committee (Approval code: 6NE-2023).
(§5) Total RNA was isolated from cells by the Trizol extraction method (Invitrogen, Life Technology, Waltham, MA, USA) and reverse-transcribed using random primers (250 ng) and RevertAid Reverse Transcriptase (200 U/µL, Thermo Scientific, Waltham, MA, USA). […] The expression levels were analyzed for β-actin (βactin, […] gene), Uncoupling Protein 1 (ucp1), proliferator-activated receptor gamma coactivator-1 alpha (pgc1α), cytochrome-c oxidase subunit 8b (cox8b), galanin receptors 2 and 3 (galr2 and galr3, respectively), and Spexin (spx). […] The relative changes in the expression level of each gene (ΔΔCt) were calculated by the ΔCt method.

[2] = Plasma glucose and triglyceride levels (commercial kits); assay type: in vivo, mice; details: SPX 29 µg/kg/day ten days, RT or cold; non-fasting; n = 6–7
Experimental: as §3, with “measurement. Inguinal AT (IAT, subcutaneous depot), epididymal AT (EAT, visceral depot), and brown AT (BAT, subcutaneous depot) were aseptically dissected and weighed. These depots were kept at –80 °C for further procedures.” for “measurement.”
as §2

cox8b = cox8b mRNA expression in AT depots (qRT-PCR); assay type: in vivo, mice; details: cold, SPX-C vs. CTR-C, C × S p < 0.001
Experimental: as §4, §5

Liver Tg content = assay type: in vivo, mice; details: SPX 29 µg/kg/day ten days
Experimental: Liver tissue (50 mg) was homogenized in a 5% solution of 500 µL Triton X-100 in PBS. The homogenate was incubated at 80–100 °C for 5 min and centrifuged at 10,000× g for 10 min. The Tg levels were measured in the supernatants using a commercial kit (Wiener Lab., Rosario, Argentina).

B1: Spexin (peptide, UniProt Q9BT56 27-116, looked up)
Spexin: APQRLLERRNWTPQAMLYLKGAQGRRFISDQSRRKDLSDRPLPERRSPNPQLLTIPEAATILLASLQKSPEDEEKNFDQTRFLEDSLLNW
modifications: Spexin
notes: novel adipokine, a peptide of 14 amino acids of the galanin family; purchased from Tocris
For B1, the “terminal differentiation of white 3T3-L1 adipocytes” value (3T3-L1 adipocytes) is listed as “inhibits”, the “viability or proliferation of preadipocytes” value (preadipocytes) is listed as “does not affect” and the “plasma SPX levels at end of protocol” value ([1]; day 10 of SPX 29 µg/kg/day, RT or cold, ELISA, n = 6–7) is listed as “did not differ between groups”. For the same molecule, the “plasma SPX levels 1 h after SPX injection vs. basal” value ([1]; mice, single ip. injection SPX 29 µg/kg, 1 h, plasma ELISA) was “two-fold higher than basal ones”, the “plasma SPX levels 3 h after SPX injection vs. basal” value ([1]; mice, single ip. injection SPX 29 µg/kg, 3 h, plasma ELISA) was “back to basal levels” and the “SPX half-life in plasma” value ([1]; mice, single ip. injection SPX 29 µg/kg, plasma ELISA at 10, 20, 60, 180, 360 minutes) was “short”. For the same molecule, the “mitDNA content in EAT” value (mitochondrial DNA; RT and cold) was “no changes”, the “mitDNA content in IAT” value (mitochondrial DNA; cold, SPX-C intermediate between CTR and CTR-C, C × S p < 0.01) was “partial inhibition, although no significant differences were found” and the “galr2 mRNA expression in EAT” value (galr2; S p < 0.01) was “decreased in both groups treated with SPX”. The “galr2 mRNA expression in IAT” value (galr2; S p < 0.01) was “decreased in both groups treated with SPX”, the “galr2 mRNA expression in BAT” value (galr2; Supplementary Figure S3) was “no differences were found” and the “plasma Tg levels” value [2] was “did not change”. For the same molecule, the plasma glucose levels [2] was “did not change”, the “cox8b mRNA expression in EAT” value (cox8b) was “inhibitory effect of SPX under cold conditions” and the “cox8b mRNA expression in IAT” value (cox8b) was “inhibitory effect of SPX under cold conditions”. The “cox8b mRNA expression in BAT” value (cox8b; Supplementary Figure S2c) was “inhibitory effect of SPX under cold conditions”, the “liver Tg content, SPX-C vs. CTR-C” value (Liver Tg content; cold (4 °C), C × S p < 0.001, p < 0.001 vs. CTR-C) was “CTR-C mice had higher Tg levels than CTR (p < 0.01) and SPX-C (p < 0.001) mice” and the “liver Tg content, SPX-C vs. SPX” value (Liver Tg content; cold vs. RT) was “lower Tg levels than SPX mice”.
